# Experimental data as given in patent US20260284207 (published 2026).
# Values joined by “and” are separate entries in the source; they are usually repeats but may differ in a detail not shown here. Equal values may be shown once. FL = fluorescein (N-terminal fluorescent label)
# Key:
# Experiment in all cases: FP
# [1] = biological target: T1, FBXO31/SKP1 complex (wild type) (human, UniProt Q5XUX0)
# [2] = biological target: FBXO31 D334N/SKP1 (human, UniProt Q5XUX0)
# [3] = biological target: T1, FBXO31/SKP1 complex (wild type); remark: listed apart in the source
# T1 sequence (Q5XUX0 whole entry, chain 1 of 2): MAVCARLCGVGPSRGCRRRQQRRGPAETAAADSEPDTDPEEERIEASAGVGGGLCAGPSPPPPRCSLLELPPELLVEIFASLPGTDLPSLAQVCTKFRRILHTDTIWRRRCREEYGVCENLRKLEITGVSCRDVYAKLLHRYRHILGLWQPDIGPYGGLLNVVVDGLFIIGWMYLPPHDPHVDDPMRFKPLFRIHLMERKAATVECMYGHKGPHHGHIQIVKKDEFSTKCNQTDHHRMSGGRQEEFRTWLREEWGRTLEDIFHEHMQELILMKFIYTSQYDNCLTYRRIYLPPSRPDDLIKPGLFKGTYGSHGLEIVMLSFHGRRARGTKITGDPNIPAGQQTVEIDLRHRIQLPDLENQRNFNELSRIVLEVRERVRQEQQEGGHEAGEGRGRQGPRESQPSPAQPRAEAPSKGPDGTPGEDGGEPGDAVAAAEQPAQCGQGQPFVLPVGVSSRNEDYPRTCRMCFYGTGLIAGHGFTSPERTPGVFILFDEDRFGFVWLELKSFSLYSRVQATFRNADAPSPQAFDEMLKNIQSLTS
# T1 sequence (chain, as listed by the source, chain 2 of 2): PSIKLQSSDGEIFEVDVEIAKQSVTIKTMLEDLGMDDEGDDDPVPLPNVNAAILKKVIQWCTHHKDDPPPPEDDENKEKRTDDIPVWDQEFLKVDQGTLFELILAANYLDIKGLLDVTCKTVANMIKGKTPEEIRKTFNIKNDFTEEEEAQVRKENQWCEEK
# Sequence of FBXO31 D334N/SKP1 (Q5XUX0 whole entry D334N, chain 1 of 2): as the sequence (Q5XUX0 whole entry, chain 1 of 2) above, with D334N counted along it
# Sequence of FBXO31 D334N/SKP1 (chain, as listed by the source D334N, chain 2 of 2): as the sequence (chain, as listed by the source, chain 2 of 2) above
binder,measurement,setting,value
{FL}-KEEDEKGSRASDDFRDLR-OH [FL-Pep2-OH (non-amidated model peptide)],binding result,[1],no binding
{FL}-KAATPTDVRDVDI-OH [FL-CycD1-OH],binding result,[2],no binding
same,binding result,[1],no binding
{FL}-KAATPTDVRDVDI-NH2 [FL-CycD1-NH2],Kd,[3],0.059 µM
{FL}-KEEDEKGSRASDDFRDLR-NH2 [FL-Pep2-NH2 (amidated model/screening peptide)],Kd,[3],0.022 µM and 0.016 µM
